Positions count from the first letter of the chain named. No end group written: not given here.
T1: GLP-1R K202A (Homo sapiens)
T1 chain: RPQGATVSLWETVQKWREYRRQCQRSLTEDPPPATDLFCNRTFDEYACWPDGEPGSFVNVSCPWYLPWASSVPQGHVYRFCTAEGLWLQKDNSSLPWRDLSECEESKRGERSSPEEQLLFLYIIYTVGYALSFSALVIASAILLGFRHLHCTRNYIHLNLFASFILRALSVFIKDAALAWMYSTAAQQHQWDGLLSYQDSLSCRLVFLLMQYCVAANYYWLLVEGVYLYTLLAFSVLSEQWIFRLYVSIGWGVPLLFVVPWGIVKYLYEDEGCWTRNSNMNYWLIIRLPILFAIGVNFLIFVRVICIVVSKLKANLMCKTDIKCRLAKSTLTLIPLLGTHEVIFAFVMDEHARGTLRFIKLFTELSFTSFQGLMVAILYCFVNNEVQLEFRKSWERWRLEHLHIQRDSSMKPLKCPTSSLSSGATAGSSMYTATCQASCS

T2: GLP-1R H212A (Homo sapiens)
T2 chain: T1 chain with A179K, H189A

T3: GLP-1R P137A (Homo sapiens)
T3 chain: T1 chain with P114A, A179K

T4: GLP-1R Y205A (Homo sapiens)
T4 chain: T1 chain with A179K, Y182A

T5: GLP-1R V194A (Homo sapiens)
T5 chain: T1 chain with V171A, A179K

T6: GLP-1R Y145A (Homo sapiens)
T6 chain: T1 chain with Y122A, A179K


Columns and labels:
[1] = biological target: T1, GLP-1R K202A
[2] = biological target: T2, GLP-1R H212A
[3] = biological target: T3, GLP-1R P137A
[4] = biological target: T4, GLP-1R Y205A
[5] = biological target: T5, GLP-1R V194A
[6] = biological target: T6, GLP-1R Y145A

IC50 [1] | IC50 [2] | IC50 [3] | IC50 [4] | IC50 [5] | IC50 [6] | Binder
191 nM | 12.9 nM | 74.1 nM | 36.3 nM | 77.6 nM | 24.5 nM | HSQGTFTSDYSKYLDSRRAQDFVQWLMNTKRNRNNIA [oxyntomodulin]
6.03 nM | 1.23 nM | 40.7 nM | 3.09 nM | 6.17 nM | 6.17 nM | HAEGTFTSDVSSYLEGQAAKEFIAWLVKGR (not fully specified (C-terminus)) [glucagon-like peptide-1]

— paper PMC8748714 (2022)
